In article PMC2905227 (Journal of the American Chemical Society, 2010):

Biological target: T1, wild-type E. coli ribonucleotide reductase α2 subunit (E. coli, UniProt P00452 1-761)
T1 sequence (looked up): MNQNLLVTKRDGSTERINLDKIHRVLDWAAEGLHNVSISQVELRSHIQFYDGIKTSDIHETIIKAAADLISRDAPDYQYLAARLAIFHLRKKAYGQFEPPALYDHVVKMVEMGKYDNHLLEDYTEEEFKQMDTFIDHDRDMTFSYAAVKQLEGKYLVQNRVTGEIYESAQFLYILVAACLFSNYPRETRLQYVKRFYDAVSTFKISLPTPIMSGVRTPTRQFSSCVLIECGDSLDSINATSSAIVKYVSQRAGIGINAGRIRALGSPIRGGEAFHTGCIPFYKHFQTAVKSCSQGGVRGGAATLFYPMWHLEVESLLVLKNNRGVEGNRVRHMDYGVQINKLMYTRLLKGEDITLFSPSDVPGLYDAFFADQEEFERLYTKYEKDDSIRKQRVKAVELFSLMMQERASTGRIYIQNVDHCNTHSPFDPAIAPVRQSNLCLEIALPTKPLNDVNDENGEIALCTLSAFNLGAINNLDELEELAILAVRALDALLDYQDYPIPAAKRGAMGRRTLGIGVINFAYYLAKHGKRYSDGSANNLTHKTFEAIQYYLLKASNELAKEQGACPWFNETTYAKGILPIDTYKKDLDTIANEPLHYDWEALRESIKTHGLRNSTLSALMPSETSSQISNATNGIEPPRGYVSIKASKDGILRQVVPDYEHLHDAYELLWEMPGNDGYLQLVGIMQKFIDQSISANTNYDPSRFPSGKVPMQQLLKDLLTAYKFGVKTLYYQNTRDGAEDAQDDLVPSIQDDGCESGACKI
Assay: competitive inhibition of enzyme activity

Kd: 400 ± 60 nM
B1: [NO2Y122]-β2 (enzyme)
chain: AYTTFSQTKNDQLKEPMFFGQPVNVARYDQQKYDIFEKLIEKQLSFFWRPEEVDVSRDRIDYQALPEHEKHIFISNLKYQTLLDSIQGRSPNVALLPLISIPELETWVETWAFSETIHSRSYTHIIRNIVNDPSVVFDDIVTNEQIQKRAEGISSYYDELIEMTSYWHLLGEGTHTVNGKTVTVSLRELKKKLYLCLMSVNALEAIRFYVSFACSFAFAERELMEGNAKIIRLIARDEALHLTGTQHMLNLLRSGADDPEMAEIAEECKQECYDLFVQAAQQEKDWADYLFRDGSMIGLNKDILCQYVEYITNIRMQAVGLDLPFQTRSNPIPWINTWLVSDNVQVAPQEVEVSSYLVGQIDSEVDTDDLSNFQL
modifications: 3-nitrotyrosine (NO2Y) in place of Y122; diferric cluster (met form, 2.9 Fe/β2)
